Assay results: patent publication US20140023585A1, “177 LUTETIUM-LABELED BOMBESIN ANALOGS FOR RADIOTHERAPY” (UNIVERSITATSSPITAL BASEL, priority 2010, published 2014)

Key:
[1] = 37° C., 5% CO2, up to 4 days of incubation
Procedure: The mixture was incubated in a 5% CO2, 37° C. environment. At different time points, 100-μL aliquots (in triplicate) were removed and treated with 200 μL of EtOH to precipitate serum proteins. Samples were then centrifuged for 15 min at 500 rpm. […] The supernatant was analyzed with HPLC (eluents: A=0.1% trifluoroacetic acid in water and B=acetonitrile; gradient: 0 min 95% of A; 20 minutes 50% of A) to determine the stability of the peptide in serum.

PC-3 tumors = assay: Dosimetry by MIRD methodology from biodistribution data; assay type: in vivo; conditions: mice
Source text: Doses of 150-200 Gy in the tumor could be achieved considering a maximum activity of 450 MBq to be injected per animal. Kidneys were not critical instead it was the pancreas to be the dose limiting organ. (In contrast to rodent pancreas, human pancreas expresses only very low amounts of the GRPr.)

With `CC(C)C[C@H](NC(=O)C[C@H](O)[C@H](CC(C)C)NC(=O)[C@H](Cc1c[nH]cn1)NC(=O)CNC(=O)[C@@H](NC(=O)[C@H](C)NC(=O)[C@H](Cc1c[nH]c2ccccc12)NC(=O)[C@H](CCC(N)=O)NC(=O)[C@@H](Cc1ccccc1)NC(=O)CN1CCC(NC(=O)CN2CCN(CC(=O)O)CCN(CC(=O)O)CCN(CC(=O)O)CC2)CC1)C(C)C)C(N)=O` [compound 2, [^177Lu]-DOTA-4-amino-1-carboxymethylpiperidine-D-Phe-Gln-Trp-Ala-Val-Gly-His-Sta-Leu-NH2, metal not drawn] the “stability in human serum” value [1] was “remarkable stability” and the dose limiting organ (PC-3 tumors) was “pancreas”.
